Consider 40 sequences from the nanobody polyreactivity screen of Harvey et al. (2022).

A short description of this data set: yeast display, Sf9 membrane polyspecificity reagent, FACS + sequencing; frameworks hold sequencing errors. A digest of the protocol:
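A synthetic nanobody library was expressed on Saccharomyces cerevisiae BJ5465 by galactose induction for 36–48 hours. The library was stained for 1 hour at 4 °C with 10% biotinylated, detergent-solubilized Sf9 membrane reagent and enriched with streptavidin microbeads before FACS. Low and high (top ~1%) gates were set on anti-HA fluorescence for expression and streptavidin fluorescence for reagent binding, and each polyreactivity label reflects the gate of origin.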
As to “QVQLVESGGGLVQAGGSLRLSCAASGLTFDAYAMGWYRQAPGKERELDAAISSGGNTYYADSVKGRFTISRDNAKNTVYLQMNSLKPEDTAVYYCNAVGYYKYFFLAYEYDYWGQGTQVTVSS”, the “polyreactivity (PSR sort gate)” value is reported as “low polyreactivity”.

Turning to “QVQLVESGGGLVQAGGSLRLSCAASGLTFDNYAMGWYRQAPGKERELVAAISTSSGRTYYADSVKGRFTISRDNAKNTVYLQMNSLKPEDTAVYYCAAEVAFIYSYYEVYKYEYWGQGTQVTVSS”, the “polyreactivity (PSR sort gate)” value is on record as “high polyreactivity”.

On to “QVQLVESGGGLVQAGGSLRLSCAASGLTFDSYTMGWYRQAPGKERELVAAITNSGGSTYYADSVKGRFTISRDNAKNTVYLQMNSLKPEDTAVYYCAAFRTSRLYGGSYGYWGQGTQVTVSS”, for which the “polyreactivity (PSR sort gate)” value was “high polyreactivity”.

“QVQLVESGGGLVQAGGSLRLSCAASGLTFEHNAMGWYRQAPGKEREFVAVISWRGTSTYYADSVKGRFTISRDNAKNTVYLQMNSLKPEATAVYYCAAGYRGVANRKWIYYYWGQGTQVTVSS”: the “polyreactivity (PSR sort gate)” value is listed as “high polyreactivity”.

For the sequence “QVQLVESGGGLVQAGGSLRLSCAASGLTFERNAMGWYRQAPGKERELVAAISSGGSTYYADSVKGRFTISRDNAKNTVYLQMNSLKPEDTAVYYCAVYDWNSYFYRSWWSGFYYWGQGTQVTVSS”, the “polyreactivity (PSR sort gate)” value is reported as “low polyreactivity”.

For the sequence “QVQLVESGGGLVQAGGSLRLSCAASGLTFESYAMGWYRQAPGKERELVAGIDWSGGSTYYADSVKGRFTISRDNAKNTVYLQMNSLKPEDTAGYYCKRYGNSNYFAPGPLYNYWGQGTQVTVSS”, the “polyreactivity (PSR sort gate)” value was “high polyreactivity”.

Regarding “QVQLVESGGGLVQAGGSLRLSCAASGLTFFGYPMGWYRQAPGKEREFVADITWSGGSTYYADSVKGRFTISRDNAKNTVYLQMNSLKPEDTAVYYCAADYHKAEFNYWGQGTQVTVSS”, the “polyreactivity (PSR sort gate)” value is “low polyreactivity”.

Consider “QVQLVESGGGLVQAGGSLRLSCAASGLTFFRNAMGWYRQAPGKEREFVAGITSTDGSTYYADSVKGRFTISRDNAKNTVYLQMNSLKPEDTAVYYCAAAYRVRGRTYDSWGQGTQVTVSS”, for which the “polyreactivity (PSR sort gate)” value is given as “high polyreactivity”.

“QVQLVESGGGLVQAGGSLRLSCAASGLTFGDYAMGWYRQAPGKERELVAAITKSGGRTYYADSVKGRFTISRDNAKNTVYLQMNSLKPEDTEVYYCATRKGRRYGYNYWGQGTQVTVSS”: the “polyreactivity (PSR sort gate)” value is reported as “high polyreactivity”.

In the case of “QVQLVESGGGLVQAGGSLRLSCAASGLTFGDYTMGWYRQAPGKERELVAAITWSGASTYYADSVKGRFTISRDNAKNTVYLQMHSLKPEDTAVYYCAAERTPSYRAYDYWGQGTKVTVSS”, the “polyreactivity (PSR sort gate)” value is on record as “low polyreactivity”.

Regarding “QVQLVESGGGLVQAGGSLRLSCAASGLTFGDYVMGWYRPAPGKERELVATITSDGGTTYADSVKGRFTISRDNAKNTVYLQMNSLKPEDTAVYYCNADAVVDNYVGFSAAGYDYWGQGTQVTVSS”, the “polyreactivity (PSR sort gate)” value is reported as “low polyreactivity”.

With “QVQLVESGGGLVQAGGSLRLSCAASGLTFGKYAMGWYRQAPGKERELVAAISRRGGSTYYADSVKGRFTISRDNANNTVYLQMNSLKPEDTAVYFCNTDTKHTGLDYWGQGTQVTVSS”, the “polyreactivity (PSR sort gate)” value was “high polyreactivity”.

For “QVQLVESGGGLVQAGGSLRLSCAASGLTFGNYAMGSYRQAPGKERELVAAITSGGSTYYADSVKGRFTISRDNAKNTVYLQMNSLKPEDTAVYYCAKRQSQHYRSYLMDYWGQGTQVTVSS”, the “polyreactivity (PSR sort gate)” value is recorded as “low polyreactivity”.

As to “QVQLVESGGGLVQAGGSLRLSCAASGLTFGRYAMGWYRQAPGKERELVAAISSGGSTYYADSVKGRFTISRDNAKNTVYLQMNSLKPEDTAVYYCAADYVGWYFVSGRDYWGQGTQVTVSS”, the “polyreactivity (PSR sort gate)” value is on record as “low polyreactivity”.

As for “QVQLVESGGGLVQAGGSLRLSCAASGLTFGRYAMGWYRQAPGKERELVAAITWIGDGTYYGDSVKGRFTISRDNAKKTVYLQMNSLTPEDTAVYYCAAVYYTYLYGRYNYWGQGTQVTVSS”, the “polyreactivity (PSR sort gate)” value is “low polyreactivity”.

For the sequence “QVQLVESGGGLVQAGGSLRLSCAASGLTFGRYAMGWYRQAPGKERELVAVINGSGGNTYYADSVKGRFTISRDNAKNTVYLQMNSLKPEDTAVYYCAARRTVQYTLYYYPDYNYWGQGTQVTVSS”, the “polyreactivity (PSR sort gate)” value is recorded as “low polyreactivity”.

With “QVQLVESGGGLVQAGGSLRLSCAASGLTFGSNGMGWYRQAPGKERELVAAISRGGSTSYADSVKGRFTISRDNAKNTVYLQMNSLKPEDTAVYYCAARSYRYSYRYRAFDYWGQGTQVTVSS”, the “polyreactivity (PSR sort gate)” value is “high polyreactivity”.

Regarding “QVQLVESGGGLVQAGGSLRLSCAASGLTFGTNAMGWSRQAPGKERELVAAISTSSGSTYYSDSVKGRFTISRDNAKNTDYLQMNSLKPEDTAVYYSAAVTVTNLSYYRYYYWGQGTQVTVSS”, the “polyreactivity (PSR sort gate)” value is “low polyreactivity”.

As to “QVQLVESGGGLVQAGGSLRLSCAASGLTFGTYAMGWYRPAPGKERELVAAIRSGGSTNYADSVKGRFTISRDNAKNTVYLQMNSLKPEDTAVYYCAKRYYWDRYYYWGQGTQVTVSS”, the “polyreactivity (PSR sort gate)” value was “high polyreactivity”.

Regarding “QVQLVESGGGLVQAGGSLRLSCAASGLTFGVNAMGWYRQAPGKERELVAVITSGGNTYYADSVKGRFTISRDNAKNTVYLQMNSLKPEDTAVYYCAAYGRASWERDYWGQGTQVTVSS”, the “polyreactivity (PSR sort gate)” value is “low polyreactivity”.

As to “QVQLVESGGGLVQAGGSLRLSCAASGLTFHAYAMGWYRQPPGKEREFVAAITRSGSSTSYADSVKGRFTISRDNAKNTVYLQMNSLKPEDTAVYYCAAQGSRKYRNDYWGQGTQVTVSS”, the “polyreactivity (PSR sort gate)” value is “high polyreactivity”.

Turning to “QVQLVESGGGLVQAGGSLRLSCAASGLTFHSNDMGRYRQAPWKETEFVAAITSGGNTYYADSVKGRFTISRDNAKNTVYLPMNSLKPEDTAVYYCNADYQDEEDDYWGQGTQVTVSS”, the “polyreactivity (PSR sort gate)” value was “low polyreactivity”.

As to “QVQLVESGGGLVQAGGSLRLSCAASGLTFIVYAMGWYRPAPGKERELVADITWSGGSTYYADSLKGRFTISRDNAKNTVYLQMNSLKPEATAVYYCNRQSAKIMDYWGQGTQVTVSS”, the “polyreactivity (PSR sort gate)” value was “low polyreactivity”.

As to “QVQLVESGGGLVQAGGSLRLSCAASGLTFIYNAMGWYRQAPGKERELVAAISGNGGDTYYADSVKGRFTISRDNAKNTVYIQMNSLKPEDTAVYYCAADYAYTPITWDEYWGQGTQVTVSS”, the “polyreactivity (PSR sort gate)” value is “low polyreactivity”.

Take “QVQLVESGGGLVQAGGSLRLSCAASGLTFKENVMGWYRQAPGKERELVAAISTGASTYYADSVKGRCTISRDNAKNTVYLQMNSLKPEDTAVYYGAKRVTRWYGYWGQGTQVTVSS”: the “polyreactivity (PSR sort gate)” value is given as “high polyreactivity”.

Take “QVQLVESGGGLVQAGGSLRLSCAASGLTFKINAMGWYRQAPGKERELVAAIRSSGGRTYADSVKGRFTISRDNAKNTVYLQMNSLKPEDTAVYYCNKSPGYRSGRAVLYDYWGQGTQVTVSS”: the “polyreactivity (PSR sort gate)” value was “low polyreactivity”.

As to “QVQLVESGGGLVQAGGSLRLSCAASGLTFKLYVMGWYRQAPGKERELVAAISGGGSTYYADSVKGRFTISRDNAKNTVYLQMNSLKPEDTAVYYCAAVRYFEYEYWGQGTQVTVSS”, the “polyreactivity (PSR sort gate)” value is recorded as “low polyreactivity”.

In the case of “QVQLVESGGGLVQAGGSLRLSCAASGLTFKRYAMGWYRQAPGKERELVAGINYSSGSTYYADSVKARFTISRDNAKNTVYLQMNSLKPEDTAVYYCAADGGISAGANSGYDYWGQGTQVTVSS”, the “polyreactivity (PSR sort gate)” value is recorded as “high polyreactivity”.

Take “QVQLVESGGGLVQAGGSLRLSCAASGLTFKRYAMGWYRQAPGKERELVASITGNGGSTYYADSVKGRFTISRDNAKNTVYLQMNSLIPEDTAVYYCNSRRYVRTSQQPLYDYWGQVTQVTVSS”: the “polyreactivity (PSR sort gate)” value is recorded as “high polyreactivity”.

Turning to “QVQLVESGGGLVQAGGSLRLSCAASGLTFKSYAMGWYRQAPGKERELVAAISWRGGRTYYADSVKGRFTISRDNAKNTVYLQMNSLKPEDTAVYYCNARSQQWWLSRYNYWGQGTQVTVSS”, the “polyreactivity (PSR sort gate)” value is on record as “high polyreactivity”.

“QVQLVESGGGLVQAGGSLRLSCAASGLTFKYYAMGWYRQAPGKERELVAAITYSVGTTYYADSVKGRFTISRDNAKNTVYLQMNSLKPEDTAVYYCAADFAPVGLPSPYAVSEGEDDYWGQGTQVTVSS”: the “polyreactivity (PSR sort gate)” value is “low polyreactivity”.

As to “QVQLVESGGGLVQAGGSLRLSCAASGLTFLFYAMGWYRHATGKERELVASIRWSDGRTYYADSVKGRFTISRDNAKNTVYLQMNSLKPEDTAVYYCAVVPAYVYLNREYYWGQGTQVTVSS”, the “polyreactivity (PSR sort gate)” value is “high polyreactivity”.

With “QVQLVESGGGLVQAGGSLRLSCAASGLTFLNNAMGWYRQAHGKERELVAAISDGGSTNYADSVKGRFTISRDNAKNTVYLQMNSLKPEDTAVYYCGADYTSASYGSWGQGTQVTVSS”, the “polyreactivity (PSR sort gate)” value is recorded as “low polyreactivity”.

For the sequence “QVQLVESGGGLVQAGGSLRLSCAASGLTFLRYAMGWYRQAPGKERELVATISASDGDTYYADSVKGRFTISGDNAKNTVYLQMNSLKPEDTAVYYCAADDIYKYYQYYAFPYYRYDDWGQGTEVTVSS”, the “polyreactivity (PSR sort gate)” value is “low polyreactivity”.

For “QVQLVESGGGLVQAGGSLRLSCAASGLTFLVNAMGWYRQAPGKEREFVSVITTDGGGTYYADSVKGRFTISRDNAKNTVYLQMNSLKPEDTAVYYCAAESKYRTAATSYRLDYDYWGQGTQVTVSS”, the “polyreactivity (PSR sort gate)” value is reported as “low polyreactivity”.

As for “QVQLVESGGGLVQAGGSLRLSCAASGLTFLVYAMGWYRQAPGKERELVAAITSIGDSTFYADSVKGRFTISRDNAKNTVYLQMNSLKPEDTAVYYCNADGPAGDNKFTLLDYDYWGQGTQVTVSS”, the “polyreactivity (PSR sort gate)” value is recorded as “low polyreactivity”.

“QVQLVESGGGLVQAGGSLRLSCAASGLTFLWYAMGWYRQAPGKERELVAAITSGGRTKYADSVKGRFTISRDNAKNTVYLQMNSLKPEDTAVYYCAAYTQWWVYDYWGQGTQVTVSS”: the “polyreactivity (PSR sort gate)” value is “high polyreactivity”.

Regarding “QVQLVESGGGLVQAGGSLRLSCAASGLTFNFNAMGWYRQAPGKERELVAAISYRAGSTYYADSVKGRFTISRDNAKNSVYLQMNSLKPEDTAVYYCAADGYYYLKSGTYVSDYWGQGTQVTVSS”, the “polyreactivity (PSR sort gate)” value is reported as “low polyreactivity”.

With “QVQLVESGGGLVQAGGSLRLSCAASGLTFNKNAMGWYRQAPGKESEFVAAITRRGGSTYYADSVKGRFTISRDNAKNTVFLQMNSLKPEDTAVYYCAVYPASVNPYHYDYWGQGTQVTVSS”, the “polyreactivity (PSR sort gate)” value is “high polyreactivity”.

Consider “QVQLVESGGGLVQAGGSLRLSCAASGLTFNVYAMGWYRPAPGKERELVASITKRGGSTYYADSVKGRFTISRDNAKNTVYLQMNSLKPEDTAVYYCAADGLTGSKYRATGYYWGQGTQVTVSS”, for which the “polyreactivity (PSR sort gate)” value is “high polyreactivity”.
